According to patent US20230406948A1 (APEXIGEN, published 2023):

What was measured:
[1] = target: T1, human CD40 on cells (native CD40 on Ramos cells, human B cells, human monocyte-derived dendritic cells); cell … (human, UniProt P25942 21-193); assay: FACS on Ramos cells, 30 min at 4 C, Alexa 488 goat anti-human IgG
T1 construct: Endogenous CD40 on human cells; also called native CD40 protein; CD40 positive cells
Description: (§1) In order to assess the target mediated-internalization of APX005 for evaluating its impact on ADCC activity, Ramos cells were incubated with APX005 for 4 h at 37° C., a temperature permissive for internalization, or at 4° C. for 30 minutes, a temperature at which internalization is minimized. Cells were washed with staining buffer, followed by incubation with Alexa 488 labeled goat anti-human IgG for an additional 30 minutes at 4° C. FACS analysis was performed to examine the level of APX005 on the cell surface.

[2] = target: T1, human CD40 on cells (native CD40 on …); assay: FACS on live Ramos cells, goat anti-human IgG PE
Description: (§2) In another experiment, the ability of the CD40 antibodies to bind to native CD40 protein was determined by FACS analysis with live Ramos cells. Ramos cells were harvested and blocked with 1.5 ml blocking buffer (0.1% BSA/PBS) for 30 minutes. Antibodies at various concentrations were added to cells and incubated for 1 hour. After washing, 50 ul Goat-anti-human IgG (H+L) PE antibody at 1:1000 dilution in blocking solution was added and incubated for 30 minutes. Cells were then washed with PBS and were re-suspended with […] and analyzed by FACS. The antibodies tested were the 19-21 rabbit anti-CD40 agonist antibody, SGN-40 developed by Seattle Genetics and CP870893 from Pfizer.

[3] = target: T1, human CD40 on cells (native CD40 on …); assay: cell-based or functional assay
[4] = target: T2, mouse CD40 on mouse A20 cells (mouse, UniProt P27512 20-289); assay: FACS on mouse A20 cells, goat anti-human IgG (H+L) R-PE
T2 construct: whole, on cells
T2 sequence (P27512 20-289): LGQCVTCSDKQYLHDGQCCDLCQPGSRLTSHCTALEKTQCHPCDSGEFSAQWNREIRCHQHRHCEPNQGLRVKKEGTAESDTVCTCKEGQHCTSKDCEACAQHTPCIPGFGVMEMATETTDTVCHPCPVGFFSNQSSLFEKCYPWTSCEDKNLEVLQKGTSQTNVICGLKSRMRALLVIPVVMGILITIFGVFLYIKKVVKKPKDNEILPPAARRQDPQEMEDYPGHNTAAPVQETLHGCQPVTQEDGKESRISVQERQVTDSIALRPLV
Description: Cross-reactivity of APX005 with mouse CD40 was further determined by FACS binding to a mouse A20 cell line which expresses mouse CD40. An aliquot of 0.5×10⁶ A20 cells was added to 96 well plates and incubated with 100 μl diluted rat anti-mouse CD40 antibody conjugated with PE, APX005 or IgG1 control antibodies. After washing, 100 μl Goat-anti human IgG (H+L) conjugated with R-PE (Southern Biotech CAT #2040-09) were added at 1:200 dilution in PBS to the sample and incubated for detection of APX005 and control human IgG1. A rat anti-mouse CD40 antibody conjugated with PE was used as positive control. Samples were re-suspended with 0.5 ml PBS and analyzed by FACS.

[5] = target: T1, human CD40 on cells (native CD40 on …); assay: FACS on live Ramos cells, goat anti-human IgG (H+L) PE
Description: as §2

CD40-Fc protein = target: T3, CD40-Fc protein (Homo sapiens (Human), UniProt P25942 21-193); assay: ELISA, plates coated with CD40-Fc protein, OD405nm
T3 construct: not shown: Fc
T3 sequence (P25942 21-193 limits assumed): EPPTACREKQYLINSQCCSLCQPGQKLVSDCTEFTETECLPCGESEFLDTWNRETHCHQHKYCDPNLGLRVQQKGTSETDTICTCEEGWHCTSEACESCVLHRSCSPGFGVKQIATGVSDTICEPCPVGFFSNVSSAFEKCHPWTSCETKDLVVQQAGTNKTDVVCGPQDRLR
Excerpt: In order to assess the ability of the APX005 […] mutant to bind to CD40, APX005 S267E heavy chain and light chain plasmids were purified from transformed bacteria and transfected into 293-6E cell. Four days after transfection, antibody-containing culture supernatants were collected and tested for binding to CD40 using ELISA (ELISA plates coated with CD40-Fc protein).

[6] = target: T1, human CD40 on cells (native CD40 on …); assay: FACS on Ramos cells, 4 h at 37 C, Alexa 488 goat anti-human IgG
Description: as §1

mouse CD40 = target: T4, mouse CD40 (mouse, UniProt P27512 20-193, limits assumed); assay: direct ELISA according to paragraph 284 (1 ug/ml mouse CD40 coated, goat anti-human IgG-HRP); y axis of the sheet reads MFI
T4 construct: Coated on ELISA plates at 1 ug/ml
T4 sequence (P27512 20-193 limits assumed): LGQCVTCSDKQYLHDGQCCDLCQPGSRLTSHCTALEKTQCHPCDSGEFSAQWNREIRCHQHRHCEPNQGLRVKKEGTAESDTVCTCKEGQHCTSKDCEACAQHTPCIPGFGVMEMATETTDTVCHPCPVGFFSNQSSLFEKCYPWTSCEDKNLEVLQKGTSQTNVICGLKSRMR
Description: Cross-reactivity was assessed by direct ELISA. A total of 1 μg/ml of human CD40, monkey CD40 or mouse CD40 was coated on ELISA plates followed by incubation with 1 μg/ml of APX005 or control IgG1. Antibodies bound to CD40 were detected using goat anti-human IgG conjugated with HRP. APX005 clearly crossreacts with monkey CD40 but not mouse CD40. (FIG. 11A)

[7] = target: T5, fusion protein of rabbit Fc and RANK (UniProt Q9Y6Q6 30-212, limits assumed); assay: direct ELISA, 1 ug/ml rabbit Fc-RANK fusion coated, goat anti-human IgG-HRP
T5 construct: Neither the species nor the order of the parts is stated; not shown: rabbit Fc
T5 sequence (looked up): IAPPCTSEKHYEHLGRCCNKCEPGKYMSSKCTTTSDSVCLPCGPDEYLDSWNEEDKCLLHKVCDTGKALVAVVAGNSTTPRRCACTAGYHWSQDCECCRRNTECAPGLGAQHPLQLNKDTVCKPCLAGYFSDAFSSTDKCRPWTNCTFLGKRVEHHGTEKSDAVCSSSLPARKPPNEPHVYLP
Description: Binding selectivity of APX005 was assessed by direct ELISA to a panel of TNFR family proteins. A total of 1 μg/ml of fusion protein of rabbit Fc and CD40, RANK, TweakR, OX40, DR5 and 4-1 BB were coated on ELISA plates. Bound APX005 was detected using goat anti-human HRP-conjugated IgG.

[8] = target: T6, CD40 peptide, residues 125-144 of human CD40 (125PCPVGFFSNVSSAFEKCHPW144) (human); assay: PEPSCAN-based ELISA on solid-phase peptides
T6 construct: It is the unmutated control peptide of the mutagenesis set
T6 peptide: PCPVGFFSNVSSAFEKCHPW
Description: The binding of antibody to each of the synthesized peptides was tested in a PEPSCAN-based ELISA. The peptide arrays were incubated with primary antibody solution (overnight at 4° C.). After washing, the peptide arrays were incubated with a 1/1000 dilution of an antibody peroxidase conjugate (SBA, cat.nr.2010-05) for one hour at 25° C. After washing, the peroxidase substrate 2,2′-azino-di-3-ethylbenzthiazoline sulfonate (ABTS) and 2 microliters/milliliter of 3 percent H₂O₂ were added. After one hour, the color development was measured. The color development was quantified with a charge coupled device (CCD)—camera and an image processing system.

T1 sequence (P25942 21-193): as the sequence (P25942 21-193 limits assumed) above

EC50 (read off the curve) [1]: ~0.05 µg/mL
fold higher affinity than CP870893 [2]: 6 fold
EC50 (ng/ml), CD40 agonist activity: up-regulation of CD86 on human B cells [3]: 24.4 ng/mL
binding result [4]: no binding (tested: 10000 ng/ml)
EC50 [5]: 0.023 µg/mL
EC50 (CD40-Fc protein): 0.0563 µg/mL
EC50 (read off the curve) [6]: ~0.05 µg/mL
binding result (mouse CD40): no binding
binding result [7]: no binding
binding result [8]: binds
B1: APX005, humanized version of the R-8 rabbit anti-CD40 antibody (antibody, IgG1, V domains shown)
VH: QVQLVESGGGVVQPGRSLRLSCAASGFSFSSTYVCWVRQAPGKGLEWIACIYTGDGTNYSASWAKGRFTISKDSSKNTVYLQMNSLRAEDTAVYFCARPDITYGFAINFWGPGTLVTVSS
VL: DIQMTQSPSSLSASVGDRVTIKCQASQSISSRLAWYQQKPGKPPKLLIYRASTLASGVPSRFSGSGSGTDFTLTISSLQPEDVATYYCQCTGYGISWPIGGGTKVEIK
notes: also called humanized R-8; APX005 wild type
